In paper PMC2749287:

What was measured:
[1] = target: T1, VDR;RXRα (human;human, UniProt P11473;P19793 1-427;1-462, |); experiment: competition
[2] = target: T1, VDR;RXRα; experiment: EMSA

T1 sequence (P11473 whole entry, chain 1 of 2): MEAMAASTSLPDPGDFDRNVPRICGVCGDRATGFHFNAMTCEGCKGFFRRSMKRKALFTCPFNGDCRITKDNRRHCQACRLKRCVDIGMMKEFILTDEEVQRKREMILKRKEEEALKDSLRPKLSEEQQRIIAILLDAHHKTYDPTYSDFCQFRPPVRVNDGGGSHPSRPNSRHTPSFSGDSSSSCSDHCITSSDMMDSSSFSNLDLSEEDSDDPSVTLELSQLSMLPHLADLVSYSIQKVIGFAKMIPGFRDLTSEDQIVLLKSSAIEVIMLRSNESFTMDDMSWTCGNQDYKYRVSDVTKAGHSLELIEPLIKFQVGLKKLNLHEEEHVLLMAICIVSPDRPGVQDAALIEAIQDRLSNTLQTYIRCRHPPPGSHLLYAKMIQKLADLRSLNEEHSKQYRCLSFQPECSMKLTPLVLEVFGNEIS
T1 sequence (P19793 whole entry, chain 2 of 2): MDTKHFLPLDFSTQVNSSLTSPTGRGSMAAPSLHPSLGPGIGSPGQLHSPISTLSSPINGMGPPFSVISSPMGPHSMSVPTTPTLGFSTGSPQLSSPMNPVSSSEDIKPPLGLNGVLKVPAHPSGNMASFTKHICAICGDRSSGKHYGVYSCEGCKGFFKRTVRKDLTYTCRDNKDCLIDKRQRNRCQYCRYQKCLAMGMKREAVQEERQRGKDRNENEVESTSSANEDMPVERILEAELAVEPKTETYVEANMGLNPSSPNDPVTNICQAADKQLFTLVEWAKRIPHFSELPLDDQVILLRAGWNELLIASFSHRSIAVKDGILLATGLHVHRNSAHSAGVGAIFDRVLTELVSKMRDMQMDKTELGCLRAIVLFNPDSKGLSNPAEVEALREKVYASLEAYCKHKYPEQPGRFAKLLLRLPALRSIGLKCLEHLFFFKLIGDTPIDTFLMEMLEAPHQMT

| Binder | binding result [1] | binding result [2] |
| --- | --- | --- |
| unlabeled wild-type VDRE2 competitor (dsDNA) DNA 1: CGAAGCACACCCGGTGAACTCCGGGCTT DNA 2: AAGCCCGGAGTTCACCGGGTGTGCTTCG | binds |  |
| wild-type VDRE2 probe, hCYP24A1 promoter (dsDNA) DNA 1: CGAAGCACACCCGGTGAACTCCGGGCTT DNA 2: AAGCCCGGAGTTCACCGGGTGTGCTTCG |  | binds |
